Assay [1] has as its target murine TfR expressed by murine neuroblastoma Neuro-2a cells (mouse, UniProt Q62351 1-763). The assay can be described thus: cell-based or functional assay.
In assay [2] the target is T1, human transferrin receptor fused to EGFP, expressed on CHO cells (human, UniProt P02786 1-760). As to the kind of experiment: cell-based or functional assay.
Assay [3] concerns the target T1, human transferrin receptor fused to …. As to the kind of experiment: flow cytometry, CHO-hTfR-EGFP cells.
The target of assay [4] is T2, mouse transferrin receptor fused to EGFP, expressed on CHO cells (mouse, UniProt Q62351 1-763).
T2 construct: whole, on cells; also called mTfR; mouse TfR
The assay can be described thus: flow cytometry, CHO-mTfR-EGFP cells.

Assay [5] addresses T1, human transferrin receptor fused to …. The assay can be described thus: flow cytometry, CHO-hTfR-EGFP cells, apparent Kd.
Assay [6] addresses T2, mouse transferrin receptor fused to …. As to the kind of experiment: flow cytometry, CHO-mTfR-EGFP cells, apparent Kd.
The target in assay [7] is T3, rhesus monkey transferrin receptor fused to EGFP, expressed on CHO cells (rhesus monkey, UniProt H9EXL1 1-760).
T3 construct: also called rhTfR; rhesus monkey TfR; not shown: EGFP fused to the cytoplasmic end of the receptor
As to the kind of experiment: flow cytometry, CHO-rhTfR-EGFP cells, apparent Kd.

Assay [8] has as its target T4, mouse TfR ectodomain fused to a mouse IgG1 Fc fragment (mouse, UniProt Q62351 89-763).
T4 construct: extracellular domain; produced in-house; not shown: mouse IgG1 Fc fragment
The assay can be described thus: SPR (Biacore T200).

Assay [9] addresses T2, mouse transferrin receptor fused to …. As to the kind of experiment: flow cytometry, CHO-mTfR-EGFP cells, apparent Kd. The source holds these as a separate data set.

Read-outs that look alike come from different tables or passages of the source.

T1 sequence (P02786 whole entry, the tested form may be a part): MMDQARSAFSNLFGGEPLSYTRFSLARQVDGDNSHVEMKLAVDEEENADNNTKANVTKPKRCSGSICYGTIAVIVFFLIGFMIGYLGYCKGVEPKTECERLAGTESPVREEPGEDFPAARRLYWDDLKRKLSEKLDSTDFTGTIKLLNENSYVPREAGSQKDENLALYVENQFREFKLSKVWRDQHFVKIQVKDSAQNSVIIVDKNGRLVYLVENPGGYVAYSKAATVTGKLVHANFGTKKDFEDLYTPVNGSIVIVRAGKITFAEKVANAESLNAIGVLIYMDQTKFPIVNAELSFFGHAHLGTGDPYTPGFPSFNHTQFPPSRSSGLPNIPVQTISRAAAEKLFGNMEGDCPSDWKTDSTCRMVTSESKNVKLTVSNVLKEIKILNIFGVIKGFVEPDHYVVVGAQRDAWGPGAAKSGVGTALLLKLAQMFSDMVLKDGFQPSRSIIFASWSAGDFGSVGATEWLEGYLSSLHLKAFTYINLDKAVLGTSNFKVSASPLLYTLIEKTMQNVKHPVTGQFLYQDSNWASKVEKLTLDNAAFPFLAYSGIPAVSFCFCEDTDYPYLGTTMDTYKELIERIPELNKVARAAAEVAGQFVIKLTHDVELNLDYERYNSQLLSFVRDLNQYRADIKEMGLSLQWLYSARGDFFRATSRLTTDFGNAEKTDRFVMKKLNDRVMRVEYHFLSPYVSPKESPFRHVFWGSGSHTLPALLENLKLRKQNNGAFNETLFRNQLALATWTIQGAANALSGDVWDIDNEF
T2 sequence (Q62351 whole entry, the tested form may be a part): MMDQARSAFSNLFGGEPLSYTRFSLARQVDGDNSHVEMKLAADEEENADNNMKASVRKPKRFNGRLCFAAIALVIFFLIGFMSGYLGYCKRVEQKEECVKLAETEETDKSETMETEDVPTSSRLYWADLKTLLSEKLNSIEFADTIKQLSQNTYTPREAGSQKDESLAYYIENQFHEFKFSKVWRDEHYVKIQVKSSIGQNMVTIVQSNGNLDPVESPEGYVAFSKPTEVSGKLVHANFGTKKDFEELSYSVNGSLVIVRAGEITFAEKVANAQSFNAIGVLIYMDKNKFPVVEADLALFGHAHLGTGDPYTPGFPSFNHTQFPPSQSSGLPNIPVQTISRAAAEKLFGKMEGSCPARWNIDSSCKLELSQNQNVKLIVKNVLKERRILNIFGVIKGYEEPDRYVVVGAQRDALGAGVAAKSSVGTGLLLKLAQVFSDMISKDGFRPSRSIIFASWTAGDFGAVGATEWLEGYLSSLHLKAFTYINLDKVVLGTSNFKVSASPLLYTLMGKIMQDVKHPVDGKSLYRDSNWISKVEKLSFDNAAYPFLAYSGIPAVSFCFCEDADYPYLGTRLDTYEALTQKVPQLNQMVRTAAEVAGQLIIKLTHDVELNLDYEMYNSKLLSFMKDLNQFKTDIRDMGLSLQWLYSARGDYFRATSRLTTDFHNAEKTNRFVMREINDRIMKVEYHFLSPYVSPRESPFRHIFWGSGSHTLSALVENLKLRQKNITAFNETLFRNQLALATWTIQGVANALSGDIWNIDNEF
T3 sequence (H9EXL1 entry or part of it limits assumed, form in doubt): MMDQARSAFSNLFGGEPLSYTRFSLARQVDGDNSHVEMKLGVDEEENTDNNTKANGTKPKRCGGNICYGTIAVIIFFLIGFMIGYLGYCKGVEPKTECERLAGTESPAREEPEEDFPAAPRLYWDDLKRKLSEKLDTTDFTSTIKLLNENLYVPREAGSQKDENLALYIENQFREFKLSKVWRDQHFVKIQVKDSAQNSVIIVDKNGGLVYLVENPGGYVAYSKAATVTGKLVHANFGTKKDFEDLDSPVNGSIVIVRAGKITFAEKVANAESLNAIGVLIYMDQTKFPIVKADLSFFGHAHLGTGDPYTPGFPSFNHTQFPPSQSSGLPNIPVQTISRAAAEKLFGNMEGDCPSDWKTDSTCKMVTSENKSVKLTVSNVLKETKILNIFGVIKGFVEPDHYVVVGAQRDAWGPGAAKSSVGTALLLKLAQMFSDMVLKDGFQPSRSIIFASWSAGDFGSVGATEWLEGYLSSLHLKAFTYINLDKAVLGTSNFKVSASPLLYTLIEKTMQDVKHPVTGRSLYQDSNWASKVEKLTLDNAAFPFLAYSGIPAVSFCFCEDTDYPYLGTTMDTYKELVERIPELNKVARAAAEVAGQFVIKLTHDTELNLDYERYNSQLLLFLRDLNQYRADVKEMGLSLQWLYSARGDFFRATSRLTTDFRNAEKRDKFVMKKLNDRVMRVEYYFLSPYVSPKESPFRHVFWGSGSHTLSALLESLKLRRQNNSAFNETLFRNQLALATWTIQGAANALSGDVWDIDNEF
T4 sequence (Q62351 89-763): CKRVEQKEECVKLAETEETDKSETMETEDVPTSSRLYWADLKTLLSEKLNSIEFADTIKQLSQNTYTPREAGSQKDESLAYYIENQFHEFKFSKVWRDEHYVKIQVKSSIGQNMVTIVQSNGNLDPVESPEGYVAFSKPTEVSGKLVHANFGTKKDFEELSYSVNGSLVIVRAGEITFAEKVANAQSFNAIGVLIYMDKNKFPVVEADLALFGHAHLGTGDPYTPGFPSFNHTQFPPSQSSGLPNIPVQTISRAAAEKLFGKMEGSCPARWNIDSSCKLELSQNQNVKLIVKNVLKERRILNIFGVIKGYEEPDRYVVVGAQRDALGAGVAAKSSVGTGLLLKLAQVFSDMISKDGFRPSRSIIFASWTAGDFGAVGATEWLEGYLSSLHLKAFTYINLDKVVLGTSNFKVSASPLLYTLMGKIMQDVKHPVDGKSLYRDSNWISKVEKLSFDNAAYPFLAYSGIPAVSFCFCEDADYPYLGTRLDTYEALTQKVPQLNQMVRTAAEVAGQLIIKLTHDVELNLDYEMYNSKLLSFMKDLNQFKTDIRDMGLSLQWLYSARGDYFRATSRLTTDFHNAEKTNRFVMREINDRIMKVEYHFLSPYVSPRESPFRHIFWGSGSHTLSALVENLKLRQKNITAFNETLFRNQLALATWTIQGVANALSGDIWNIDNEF
Sequence of murine TfR expressed by murine neuroblastoma Neuro-2a cells (Q62351 whole entry, the tested form may be a part): as the sequence (Q62351 whole entry, the tested form may be a part) above

B1: C5-siSOD1m-5'VP (other)
VHH: EVQLVESGGGVVQPGGSLKLSCVASGTDFSINFIRWYRQAPGKQREFVAGFTATGNTNYADSMKGRFTISRDNTKNAVYLQIDSLKPEDTAVYYCYMLDKWGQGTQVTVSSAAAEQKLISEEDLNGAAHHHHHHGS
modifications: siSOD1m-5'VP siRNA (SEQ ID NOs 465/466) linked by a stable linker to the tag
For the molecule B1, the “mean IC50 of mSOD1 mRNA downregulation, free uptake on Neuro-2a cells” value in assay [1] was determined as 7.4 nM.

B2: VHH A-siGFPst1 bioconjugate (other)
VHH: EVQLVESGGGVVQPGGSLKLSCVASGTDFSINFIRWYRQAPGKQREFVAGFTATGNTNYADSMKGRFTISRDNTKNAVYLQIDSLKPEDTAVYYCYMLDKWGQGTQVTVSSAAAEQKLISEEDLNGAAHHHHHHGS
modifications: siGFPst1 siRNA (3' end of sense strand, DBCO) clicked to 3-azido-1-propanamine on the Gln of the C-terminal Q-tag
In the case of B2, in [2], the “IC50 of the reduction of GFP protein levels, 6-hour pulse and chase to 120 hrs” value turned out to be 1.24 nM; the “IC50 of the reduction of GFP protein levels, free uptake 120 hrs” value amounted to 2.73 nM.

B3: VHH A6 (C5^V6) (VHH)
VHH: EVQLVESGGGVVQPGGSLKLSCVASGTDFSINFIRWYRQAPGKQREFVAGFTATGNTNYADSMKGRFTISRDNTKNAVYLQIDSLKPEDTAVYYCYALDKWGQGTQVTVSS
Regarding B3, the binding result in [3] and in [4] was “binds” in each case.

B4: E9 (VHH)
VHH: EVQLVESGGGLVQPGGSLRLSCVSSATFGGYSMGWFRQAPGKEREFVAAITWNGGIIKDYADGVMGRFTISRNSALNTVYLQMDSLKSTDTGVYVCAGDRTYYAGGYVPTSEREYAFWGQGTQVTVSS
Turning to B4, the figures for the Kd in [5], in [6] and in [7] were 1290 nM, 1310 nM and 1540 nM, respectively.

B5: VHH A17 (C5^V17) (VHH)
VHH: EVQLVESGGGVVQPGGSLKLSCVASGTDFSINFIRWYRQAPGKQREFVAGFTATGNTNYADSMKGRFTISRDNTKNAVYLQIDSLKPEDTAVYYCYMIDKWGQGTQVTVSS
Regarding B5, the binding result in [3] and in [4] was “binds” each time.

B6: VHH A19 (C5^V19) (VHH)
VHH: EVQLVESGGGVVQPGGSLKLSCVASGTDFSINFIRWYRQAPGKQREFVAGFTATGNTNYADSMKGRFTISRDNTKNAVYLQIDSLKPEDTAVYYCYMLEKWGQGTQVTVSS
Regarding B6, in assay [4], the binding result was “binds”.

B7: VHH D (H3) (VHH)
VHH: EVQLVESGGGEVQPGGSLKLSCVASGTDFSINFVRWYRQRPGKQREWVAGFTANGDTNYPDSMKGRFTISRDNAKNTVYLQINSLKSEDTAVYYCYMLDNWGQGTQVTVSS
In assay [8], B7 returned a kon of 5.81e+06 M⁻¹ s⁻¹.

B8: B8^V9 (VHH)
VHH: EVQLVESGGGVVQPGGSLRLSCAASGEIFSINFMRWYRQAPGKQREWVAGFTRDGSKNYPDSAKGRFTISRDNAKNTVYLQIDSLKPEDTAVYYCYMLDTWGQGTQVTVSS
In the case of B8, the Kd in assay [7] is 24 nM.

B9: 13C3-LC-VHH A (bispecific antibody)
heavy: QVQLQQSGPELVRPGVSVKISCKGSGYTFTDYAMHWVKQSHAKSLEWIGVISTKYGKTNYNQKFKGKATMTVDKSSSTAYMELARLTSEDSAIYYCARGDDGYSWGQGTSVTVSSAKTTPPSVYPLAPGSAAQTNSMVTLGCLVKGYFPEPVTVTWNSGSLSSGVHTFPAVLQSDLYTLSSSVTVPSSTWPSETVTCNVAHPASSTKVDKKIVPRDCGCKPCICTVPEVSSVFIFPPKPKDVLTITLTPKVTCVVVDISKDDPEVQFSWFVDDVEVHTAQTQPREEQFNSTFRSVSELPIMHQDWLNGKEFKCRVNSAAFPAPIEKTISKTKGRPKAPQVYTIPPPKEQMAKDKVSLTCMITDFFPEDITVEWQWNGQPAENYKNTQPIMDTDGSYFVYSKLNVQKSNWEAGNTFTCSVLHEGLHNHHTEKSLSHSPG
light: DVVMTQTPLSLPVSLGDQASISCRSGQSLVHSNGNTYLHWYLQKPGQSPKLLIYTVSNRFSGVPDRFSGSGSGSDFTLKISRVEAEDLGVYFCSQNTFVPWTFGGGTKLEIKRADAAPTVSIFPPSSEQLTSGGASVVCFLNNFYPKDINVKWKIDGSERQNGVLNSWTDQDSKDSTYSMSSTLTLTKDEYERHNSYTCEATHKTSTSPIVKSFNRNECSGSGGGGGMAEVQLVESGGGVVQPGGSLKLSCVASGTDFSINFIRWYRQAPGKQREFVAGFTATGNTNYADSMKGRFTISRDNTKNAVYLQIDSLKPEDTAVYYCYMLDKWGQGTQVTVSSAAA
Regarding B9, the Kd in assay [9] was 106 nM.

(Values after patent publication EP4480965A1 (Vect-Horus, dated 2024).)
